Data on 2 variants can be found in IntAct's records for PubMed 21808041.

B1: Non-structural protein 1 (Influenza B virus (strain B/Lee/1940)), P03502 (parent)
chain: MADNMTTTQIEVGPGATNATINFEAGILECYERFSWQRALDYPGQDRLHRLKRKLESRIKTHNKSEPENKRMSLEERKAIGVKMMKVLLFMDPSAGIEGFEPYCVKNPSTSKCPNYDWTDYPPTPGKYLDDIEEEPENVDHPIEVVLRDMNNKDARQKIKDEVNTQKEGKFRLTIKRDIRNVLSLRVLVNGTFLKHPNGDKSLSTLHRLNAYDQNGGLVAKLVATDDRTVEDEKDGHRILNSLFERFDEGHSKPIRAAETAVGVLSQFGQEHRLSPEEGDN

The assay covers variants of B1. The following applies: with isg15_human ISG15, P05161.
Sequence of isg15_human ISG15, P05161 (P05161 whole entry): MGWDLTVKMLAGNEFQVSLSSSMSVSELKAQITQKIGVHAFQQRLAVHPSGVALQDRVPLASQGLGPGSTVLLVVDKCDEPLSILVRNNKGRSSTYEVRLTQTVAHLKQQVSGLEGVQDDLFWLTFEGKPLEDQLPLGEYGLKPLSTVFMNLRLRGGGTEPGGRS
For the variant M91A;F100A, the “effect of a mutation on the interaction” value is listed as “decreasing interaction strength”.

For the variant W36A;Q37A, the “effect of a mutation on the interaction” value was “disrupting interaction strength”.
